Measurements: patent US20220177583A1
Substitutions are numbered along the chain they refer to.

B1: AB4-chim (antibody, V domains shown)
VH: QVQLQQSGAELARPGASVKMSCKASGYTFTSYTMHWIKQRPGQGQEWIGYINPSSTYTHYIKKFKDKATLTADKSSSTAYMQLRSLTSEDSAVYYCSRGELGGFAYWGQGTLVTVSA
VL: DVVMTQTPLSLPVSLGDQASISCRSSQSLVHSDGNTYLNWYLQKPGQSPKLLIYKVSNRFSGVPDRFSGSGSGTDFTLKIRRVEAEDLGVYFCSQSTHVPYTFGGGTKLEIK
B2: AB14 (antibody, V domains shown)
VH: QVQLQQSGPELVRPGVSVKISCKGSGYTFTDYAMHWVKQSHAKSLEWIGVISTYSGNTNYNQKFQDKATMTVDKSSSTAYMALARLTSDDSAIYYCARRGDYSLYAMDYWGQGTSVTVSS
VL: DIVLTQSPASLAVSLGQRATISCKASQSVDYDGDNYVNWYQQKVGQPPKLLISAASNLESGIPARFSGSGSGTDFTLNIHPVEEEDAATYYCQQSNEDPFTFGSGTKLEIK
B3: AB12 (antibody, V domains shown)
VH: EVKLMESGGDLVKPGGSLKLSCAASGFTFSSYAMSWVRQTPEKRLEWVASIRSGGTTYYPDSVKGRFTISRDNARNILYLRMSSLRSEDTAIYYCAKVGGNPYPMDYWGQGTSVTVSS
VL: DIQMIQSPSSMFASLGDRVSLSCRASQDIGGNLDWYQQKPGGTIKLLIYSTSNLNSGVPSRFSGSGSGSDYSLTITSLESEDFADYYCLQRNAYPLTFGAGTKLELK
B4: AB11 (antibody, V domains shown)
VH: DVQLVESGGGLVQPRGSRKLSCAASGFTFSSFGMHWVRQAPEKGLEWVAYISSDSRTIYYADTVKGRFTISRDNPTNTLFLQMTSLRSEDTAMYYCARDYGRTYEAYWGQGTLVTVSA
VL: DIVLTQSPASLAVSLGQRATISCRASKSVSTSGYSYIHWYQQKPGQPPKLLIYLASNLESGVPARFSGSGSGTDFTLNIHPVEEEDAATYYCQHSRELPLTFGAGTKLELK
B5: AB15 (antibody, V domains shown)
VH: B4 VH
VL: NIMMTQSPSSLAVSAGEKVTMSCKSSQSVLFSSNQKNYLAWYQQKPGQSPRLLIYWASTRESGVPDRFTGSGSGTDFTLTISNVQAEDLAVYYCHQYLSSRTFGAGTKLELK
B6: AB9 (antibody, V domains shown)
VH: EVQLQQSGPELVKPGASVKMSCKASGYRFTDYNMHWVKQSHGKSLEWIGYINPNNGGTNYNQNFKGKATLTVNKSSSTAYMELRSLTSEDSAAYYCARDYLYFFDCWGQGTTLTVSS
VL: DIQMTQSPASQSASLGESVTITCLASQTIGTWLAWYQQKPGKSPQLLIYAAASLADGVPSRFSGSGSGTRFSFKISSLQAEDFVSYYCQQLYSIPRTFGGGTKLEIK
B7: AB18 (antibody, V domains shown)
VH: QVQLKQSGPELEKPGASVKISCKASGYSFTGYNMNWVKQSNGKSLEWIGNIDPYYGGSTYNQKFTGKATLTVDKSSSTAYMQLKSLTSEDSAVYYCARERSGYVFSAMDYWGQGTSVTVSS
VL: B5 VL
B8: AB19 (antibody, V domains shown)
VH: EVQLQQSGPELVKPGGSMKISCKASGYSFTGYTMNWVKRSHGKNLEWIGLINPYNGVTTYNQNFKGKATLAVDKSSSTAYMELLGLTSEDSAVYYCTRDPLYYGYRDSTMDYWGQGTSVTVSS
VL: B5 VL
B9: AB17 (antibody, V domains shown)
VH: QVQLQQSGAELAKPGASVKMSCKASGYTFTGYWMHWVKQRPGQGLEWLGYINPSTGYTESNQKFKDKATLTADKSSTTAYMQLRSLTPEDSAVYYCAREGITTVLVDYWGQGTTLTVSS
VL: QIVLTQSPAIMSASLGERVTMTCTASSSVSSSYLHWYQQKPGSSPKLWIYSTSNLASGVPARFSGSGSGTSYSLTISSMEAEDAATYYCHQYHRSPPTFGAGTKLELK
B10: AB10 (antibody, V domains shown)
VH: QIQLVQSGPALKKPGETVKISCKASGYTFTDYSMHWIKQAPGKGLKWMGWISTETGEPTYADGFKGRFDFSLETSADTAYLSINNLTNEDTATYFCTRGLWSSFAYWGQGTLVTVSA
VL: B1 VL with S25A, D33N, N39H, Y41F, G73R, R81S, S96I
B11: AB13 (antibody, V domains shown)
VH: QVQLQQSGAELVRPGTSVKVSCKASGYAFSNYLIEWVKQRPGQGLEWIGVINPGSGGTNYNEKFKGKATMTADKSSSTAYMHLSNLTSEDSVVYFCARSYFGRSYPYTMDYWGQGTSVTVSS
VL: EIVLTQSPTTMAASPGEKITITCSASSSISSNYLHWYQQKPGFSPKLLIYRTSNLASGVPARFSGSGSGTSYSLTIGTMEAEDVATYYCQQGSSIPLTFGAGTKLELK
B12: AB3-7 (antibody, V domains shown)
VH: EVQLLESGGGLVQPGGSMRLSCAASGFTFSNYWMNWVRQAPGKGLEWVAQIRLKSDNYATHYADSVKGRFTISRDDSKNTVYLQMNSLRAEDTGVYYCNDGPPSGSWGQGTLLTVSS
VL: DIQMTQSPSSLSASVGDRVTITCRISENIYSYLAWYQQKPGKAPKLLVYNAKILVEGVPSRFSGSGSGTDFTLTISSLQPEDFGTYYCQHHYTVPWTFGQGTKLEIK
B13: AB3-7 scFv (scFv)
scFv: DIQMTQSPSSLSASVGDRVTITCRISENIYSYLAWYQQKPGKAPKLLVYNAKILVEGVPSRFSGSGSGTDFTLTISSLQPEDFGTYYCQHHYTVPWTFGQGTKLEIKGGGGSGGGGSGGGGSEVQLLESGGGLVQPGGSMRLSCAASGFTFSNYWMNWVRQAPGKGLEWVAQIRLKSDNYATHYADSVKGRFTISRDDSKNTVYLQMNSLRAEDTGVYYCNDGPPSGSWGQGTLLTVSS
B14: AB1-11 scFv (scFv)
scFv: DIQLTQSPSSLSASVGDRVTMTCTASSSVSSTYFHWYQQKPGKAPKLWIYSTSNLASGVPSRFSGSGSGTDYTLTISSMQPEDAATYYCHQYHRSPLTFGQGTKLEIKGGGGSGGGGSGGGGSQVQLVQSGAEVKKPGASVKMSCKASGYTFTTYTMHWVRQAPGQGLEWIGFINPSSGYTDYAQKFQGRVTLTADKSTSTVYMELSSLRSEDTAVYYCANGDYYVAYWGQGTLVTVSS
B15: AB3-7 conjugated to MC-VC-PAB-MMAE (conventional) (antibody, V domains shown)
VH: B12 VH
VL: B12 VL
modifications: MC-VC-PAB-MMAE conjugated to the antibody, heterogeneous (conventional); sites not stated
B16: AB3-7 conjugated to CL2A-SN38 (conventional) (antibody, V domains shown)
VH: B12 VH
VL: B12 VL
modifications: CL2A-SN38 conjugated to the antibody, heterogeneous (conventional); sites not stated
B17: AB3-7 conjugated to MC-GGFG-DXD (antibody, V domains shown)
VH: B12 VH
VL: B12 VL
modifications: MC-GGFG-DXD conjugated to the antibody; sites not stated
B18: AB3-7 conjugated to CL2A-SN38 (D4 technology) (antibody, V domains shown)
VH: B12 VH
VL: B12 VL
modifications: CL2A-SN38 conjugated to the antibody (D4); sites not stated
B19: AB3-7 conjugated to MC-GGFG-MMAE (D4 technology) (antibody, V domains shown)
VH: B12 VH
VL: B12 VL
modifications: MC-GGFG-MMAE conjugated to the antibody (D4); sites not stated
B20: AB3-7 conjugated to MC-VC-PAB-MMAE (D4 technology) (antibody, V domains shown)
VH: B12 VH
VL: B12 VL
modifications: MC-VC-PAB-MMAE conjugated to the antibody, substantially 4 drugs per antibody (D4); sites not stated
B21: AB3-7 conjugated to MC-VC-PAB-DXD (antibody, V domains shown)
VH: B12 VH
VL: B12 VL
modifications: MC-VC-PAB-DXD conjugated to the antibody; sites not stated

Molecular target: T1, mouse CLDN6 fused to GFP, expressed on engineered HEK293T cells (mouse) (UniProt Q9Z262)
T1 sequence (looked up): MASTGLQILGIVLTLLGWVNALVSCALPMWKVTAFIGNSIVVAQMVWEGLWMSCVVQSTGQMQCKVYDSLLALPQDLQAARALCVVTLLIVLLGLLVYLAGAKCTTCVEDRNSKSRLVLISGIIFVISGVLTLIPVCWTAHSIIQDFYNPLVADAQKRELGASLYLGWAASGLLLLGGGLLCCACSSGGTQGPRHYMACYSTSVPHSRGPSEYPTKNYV
Assay: FACS, 293T clone with mouse CLDN6

Row | Binder | FACS signal
1 | B1 | 3640

Molecular target: CLDN3/4 endogenously expressed on LS513 and MCF7 cells
Assay: FACS dose curve, labelled mAb, MCF7 cells

Row | Binder | EC50 [nM]
2 | B2 | 546
3 | B3 | 5000
4 | B4 | 427
5 | B5 | 5000
6 | B6 | 5000
7 | B7 | 5000
8 | B8 | 5000
9 | B9 | 5000
10 | B10 | 5000
11 | B11 | 5000

Molecular target: CLDN3/4 endogenously expressed on LS513 and MCF7 cells
Assay: FACS dose curve, labelled mAb, LS513 cells

Row | Binder | EC50 [nM]
12 | B2 | 1160
13 | B3 | 2270
14 | B4 | 493
15 | B5 | 5000
16 | B6 | 1040
17 | B7 | 5000
18 | B8 | 5000
19 | B9 | 5000
20 | B10 | 1950
21 | B11 | 1590

Molecular target: human CLDN6 fused to GFP, expressed on engineered HEK293T cells (human) (UniProt P56747)
Assay: FACS, 293T clone with human CLDN6, 0.3 ug Ab

Row | Binder | FACS signal
22 | B1 | 176000
23 | B12 | 106000

Molecular target: human CLDN6 fused to GFP, expressed on engineered HEK293T cells (human) (UniProt P56747)
Assay: FACS, 293T clone with human CLDN6, 1.5 ug Ab

Row | Binder | FACS signal
24 | B1 | 327000
25 | B12 | 169000

Molecular target: human CLDN6 fused to GFP, expressed on engineered HEK293T cells (human) (UniProt P56747)
Assay: FACS dose curve, labelled mAb, HEK293T-CLDN6-mGFP cells

Row | Binder | EC50 [nM]
26 | B2 | 5000
27 | B3 | 5000
28 | B4 | 1700
29 | B5 | 5000
30 | B6 | 2670
31 | B7 | 5000
32 | B8 | 5000
33 | B9 | 2650
34 | B10 | 2760
35 | B11 | 5000

Molecular target: human CLDN6 fused to GFP, expressed on engineered HEK293T cells (human) (UniProt P56747)
Assay: FACS on 293T CLDN6 mGFP Clone A11 cells, scFv followed by secondary antibody; number from the data table under the bars

Row | Binder | FL4H Singlets in Viable cells
36 | B13 | 132000
37 | B14 | 125000

Molecular target: human CLDN6 fused to GFP, expressed on engineered HEK293T cells (human) (UniProt P56747)
Assay: KinExA 4000, cell-based equilibrium titration; Cell Model HEK293T CLDN6-mGFP A11, Cells Detached by Versene; Equilibrium Curves 500pM, 10nM

Row | Binder | Kd [nM]
38 | B15 | 6.68
39 | B16 | 1.91
40 | B17 | 3.01
41 | B18 | 2.87
42 | B19 | 1.01
43 | B20 | 5.34
44 | B12 | 1.13
45 | B21 | 3.42
